This is an account of results in PMC5593896, “A signal-on built in-marker electrochemical aptasensor for human prostate-specific antigen based on a hairbrush-like gold nanostructure”.

This data set has as its target prostate-specific antigen (PSA) (human, UniProt P07288 25-261). Kind of data set: electrochemical aptasensor (signal-on, MB marker); immobilized aptamer; linear range 0.125-128 ng/mL, LOD 50 pg/mL (40 in Table 1); no Kd in material; 20 mM Tris-HCl pH 7.4, 1 h at 37 °C, then rinsed with Tris; salt not stated. Particulars: protein: commercial; label: methylene blue (3', redox marker).

Chain of prostate-specific antigen (PSA) (P07288 25-261): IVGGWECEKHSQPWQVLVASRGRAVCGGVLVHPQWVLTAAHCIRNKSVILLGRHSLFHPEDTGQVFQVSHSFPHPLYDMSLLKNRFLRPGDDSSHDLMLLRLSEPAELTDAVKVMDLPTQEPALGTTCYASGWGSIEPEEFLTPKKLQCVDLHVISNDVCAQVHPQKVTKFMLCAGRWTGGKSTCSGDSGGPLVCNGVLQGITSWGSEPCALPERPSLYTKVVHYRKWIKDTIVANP

B1: PSA aptamer (SH/MB) (ssDNA)
DNA: TTTTTAATTAAAGCTCGCCATCAAATAGCTTT
modifications: 5' SH-(CH2)6; 3' methylene blue
For B1, the binding result is “binds”.
